The assay deals with T1, Mammaglobin polypeptide from breast cancer tissue extract (human, UniProt Q13296 19-93, glycoprotein (Asn 53 and/or Asn 68 may carry sugars)).
T1 construct: native protein in tissue extract, 17-23 kD reduced
Kind of assay: legend of FIG. 20A-D; MonoQ fractions, dot blots and Western blots. As to the method: C. Ion Exchange Chromatography The breast cancer tissue extract derived from the patient with invasive, poorly differentiated adenocarcinoma (breast) (FIG. 11, lanes. 4 and 10) was purified using anion exchange chromatography. Specifically, the 800 uL extract was applied to a Mono Q 5/5 column (Pharmacia) equilibrated with 20 mM piperazine, pH 6.0. The proteins were eluted using a linear gradient of sodium chloride. The flow rate was 1 mL/min; the gradient was 20 mM sodium chloride per milliliter of buffer; and the elution time was 50 minutes; creating an elution profile that went from 0 to 1000 mM sodium chloride. The sample loading time was 30 minutes prior to application of the elution gradient. Each 1 mL fraction was sampled. One hundred microliters of each fraction was boiled in the presence of 0.1% beta-mercaptoethanol and was then applied to a well of a dot blot apparatus and the volume was suctioned through a piece of nitrocellulose. The nitrocellulose filter was then developed with the same procedure to develop Western blots, as described hereinabove in Example 7B, using polyclonal antisera recognizing either BU101 or Mam. […]
Protein extracted from breast tissue was fractionated using a MonoQ column at pH6 and eluted using increasing salt gradient. […] The MamBu complex is detected using both antibodies under non-reducing conditions (FIGS. 20C & D). […]
(Immunoblotting shows a protein as a band on a membrane.)

Data on 1 molecule can be found in patent publication US20040265932A1 (AbbVie / Abbott, published 2004).

T1 sequence (Q13296 19-93 limits assumed): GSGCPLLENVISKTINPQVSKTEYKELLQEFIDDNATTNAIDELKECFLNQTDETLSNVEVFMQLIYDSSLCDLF

B1: BU101 polypeptide from breast cancer tissue extract (other)
chain: EFCPALVSELLDFFFISEPLFKLSLAKFDAPPEAVAAKLGVKRCTDQMSLQKRSLIAEVLVKILKKCSV
notes: native protein in tissue extract, about 7 kD reduced
Regarding B1, the binding result is “binds”.
